Columns and labels:
Assay type in all cases: physicochemical
[1] = Circular dichroism, degree of helicity (free, SUVs, micelles, TFE)
Description: Far UV circular dichroism spectra were recorded between 190 and 260 nm (in 0.5 nm or 0.2 nm increments) with a AVIV62DS spectrometer (AVIV Associates, Lakewood, N.J., USA) equipped with a thermoelectric cell holder and sample changer. The instrument was calibrated with (+)-10-[…]. Between one and three scans were collected for each sample, using 10 cm, 5 cm, 1 cm and 0.1 cm path length quartz Suprasil cells, respectively, for peptide concentrations of 10^−7 M to 10^−4 M. The bandwidth was fixed at 1.5 nm and the scan speed to is per wavelength step. The reported data are the mean of at least 2 or 3 independent measurements.
After background substraction, spectra were converted to molar ellipticity (θ) per residue in deg. […] dmol^−1. The peptide concentration was determined by amino acid analysis and also by absorption spectrometry on a Perkin Elmer Lambda 17 UV/Visible spectrophotometer when the peptide contained a chromophore (tryptophane, dansyl, naphtylalanine). […]
All spectra were recorded at 37° C. The stability of peptide 210 (SEQ ID NO:210) as a function of temperature (both free in buffer and in micelles) was determined by recording spectra at a series of different temperatures.
The degree of helicity of peptide 210 (SEQ ID NO:210) as a function of concentration was also determined.
The degree of helicity of the peptides in the various conditions was determined from the mean residue ellipticity at 222 nm (Chen et al., 1974, Biochemistry 13:3350-3359) or by comparing the CD spectra obtained to reference spectra available on databases (16 helical reference spectra from Provencher & Glockner, 1981, Biochemistry 20:33-37; denatured protein reference spectra from Venyaminov et al., 1993, Anal. Biochem. 214:17-24) using the CONTIN curve-fitting algorithm version 2DP, CD-1 pack (August 1982) (Provencher, 1982, Comput. Phys. Commun. 27:213-227, 229-242). Acceptable fit was determined using the statistical analysis methodology provided by the CONTIN algorithm. […]

[2] = NMR analysis of peptide structure; details: 25% TFE at 295 K
Description: Samples were prepared by dissolving 5 mg of peptide in 90% H2O/10% D2O containing trace amounts of 2,2-Dimethyl-2-sila-5-pentane sulfonate (DSS) as an internal chemical shift reference. Some of the samples contained trifluoroethanol (TFE) (expressed as % vol). The total sample volume was 500 μl and the concentration of peptide was approximately 5 mM.
^1H NMR spectra were acquired at 500 MHz using a Bruker DRX500 spectrometer equipped with a B-VT2000 temperature control unit. One and two-dimensional experiments were recorded using standard pulse sequences. (Two Dimensional NMR Spectroscopy, Eds. W. R. Croasmun and RMK Carlson, 1994, VCH Publishers, New York, USA). […] Two-dimensional experiments were carried out in the phase sensitive mode using time proportional phase incrementation (TPPI) and a spectral width of 6000 Hz in both dimensions. Typically, 40 scans were co-added for 400 t1 increments with 2048 data points. […]
Complete proton resonance assignments were obtained by applying the sequential assignment technique using DQFCOSY, TOCSY and NOESY spectra as described in the literature (Wuthrich, NMR of Proteins and Nucleic Acids, 1986, John Wiley & Sons, New York, USA). Secondary chemical shifts were calculated for HN and Ha protons by subtracting the tabulated random coil chemical shifts (Wishart and Sykes, 1994, Method. Enz. 239:363-392) from the corresponding experimental values.

[3] = Superose 6 gel filtration chromatography of peptide-lipid complexes; details: 1 mg peptide and 3 mgs DPPC, colyophilized, 0.9% NaCl
Description: One mg of peptide 149 ([…]; SEQ ID NO:149) was dissolved in 250 μl HPLC grade methanol (Perkin Elmer) in a one ml clear glass vial with cap (Waters #WAT025054). Dissolving of the peptide was aided by occasional vortexing over a period of 10 minutes at room temperature. To this mixture an aliquot containing 3 mg dipalmitoyl-phosphatidyl-choline (DPPC; Avanti Polar Lipids, 99% Purity, product #850355) from a 100 mg/ml stock solution in methanol was added. The volume of the mixture was brought to 400 μl by addition of methanol, and the mixture was further vortexed intermittently for a period of 10 minutes at room temperature. To the tube 200 μl of xylene (Sigma-Aldrich 99% pure, HPLC-grade) was added and the tubes were vortexed for 10 seconds. […]
Peptide-phospholipid complexes containing peptide 149 (SEQ ID NO:149) were prepared by colyophilization as described above. […] The chromatography was monitored by absorbance or scattering of light of wavelength 280 nm. […] The vast majority of both phospholipid and UV absorbance were recovered together in a few fractions with peaks at approximately 15.8 mls. […]
For comparison, a separate chromatogram of 20 μl of human HDL2 was run under the same conditions and using the same column as the peptide 149 complexes. […] The column eluate was monitored by absorbance or scattering of light of wavelength 254 nm. […]

Sequence	stability of α-helical structure with temperature [1]	helicity in the presence of TFE ([1]; TFE)	helicity ([1]; in micelles) [%]	conformation from Hα secondary shifts [2]	Stokes' diameter [3] [Angstroms]
PVLDLFRELLEELKQKLK [peptide 210]	completely stable	increases	63	highly helical conformation	
PVLELFENLWERLLDALQKKLK [peptide 149]					87

Source: patent publication US6518412B1, “Gene therapy approaches to supply apolipoprotein A-I agonists and their use to treat dyslipidemic disorders” (priority 1997, dated 2003)
